Measurements from paper PMC12118636 (Science Advances, 2025).

Target: Human calmodulin (human, UniProt P0DP23 1-149)
Assay: ITC

Kd: ~214 µM
B1: Human NaV1.9 C-tail (residues 1618 to 1766) (domain or fragment)
chain: LGEDDFDIFYEVWEKFDPEATQFIKYSALSDFADALPEPLRVAKPNKYQFLVMDLPMVSEDRLHCMDILFAFTARVLGGSDGLDSMKAMMEEKFMEANPLKKLYEPIVTTTKRKEEERGAAIIQKAFRKYMMKVTKGDQGDQNDLENGP
